From patent publication US20230145060A1
Read-outs that look alike come from different tables or passages of the source.

Key:
Assay in all cases: cell-based or functional assay
[1] = biological target: HIV-1 Env of pseudovirus pCNE8 (HIV-1)
[2] = biological target: HIV-1 Env of pseudovirus BG505 (HIV-1)
[3] = biological target: HIV-1 Env of pseudovirus X1632 (HIV-1)
[4] = biological target: HIV-1 Env of pseudovirus ZM106 (HIV-1)
[5] = biological target: HIV-1 Env of pseudovirus 278 (HIV-1)
[6] = biological target: HIV-1 Env of pseudovirus Du422 (HIV-1)
[7] = biological target: HIV-1 Env of pseudovirus T257 (HIV-1)
[8] = biological target: HIV-1 Env of pseudovirus 3817 (HIV-1)
[9] = biological target: HIV-1 Env of pseudovirus X2088 (HIV-1)
[10] = biological target: HIV-1 Env of pseudovirus JRCSF (HIV-1) (UniProt P20871)
[11] = biological target: HIV-1 Env of pseudovirus ZM197 (HIV-1)
[12] = biological target: HIV-1 Env of pseudovirus THRO (HIV-1)
[13] = biological target: HIV-1 Env of pseudovirus PV0 (HIV-1)
[14] = biological target: HIV-1 Env of pseudovirus pCNE8 (HIV-1); remark: listed apart in the source
[15] = biological target: HIV-1 Env of pseudovirus BG505 (HIV-1); remark: listed apart in the source
[16] = biological target: HIV-1 Env of pseudovirus SF162 (HIV-1) (UniProt P19550)
[17] = biological target: HIV-1 Env of pseudovirus X1632 (HIV-1); remark: listed apart in the source
[18] = biological target: HIV-1 Env of pseudovirus ZM106 (HIV-1); remark: listed apart in the source
[19] = biological target: HIV-1 Env of pseudovirus 278 (HIV-1); remark: listed apart in the source
[20] = biological target: HIV-1 Env of pseudovirus Du422 (HIV-1); remark: listed apart in the source
[21] = biological target: HIV-1 Env of pseudovirus T257 (HIV-1); remark: listed apart in the source
[22] = biological target: HIV-1 Env of pseudovirus 3817 (HIV-1); remark: listed apart in the source
[23] = biological target: HIV-1 Env of pseudovirus X2088 (HIV-1); remark: listed apart in the source
[24] = biological target: HIV-1 Env of pseudovirus JRCSF (HIV-1) (UniProt P20871); remark: listed apart in the source
[25] = biological target: HIV-1 Env of pseudovirus ZM197 (HIV-1); remark: listed apart in the source
[26] = biological target: HIV-1 Env of pseudovirus THRO (HIV-1); remark: listed apart in the source
[27] = biological target: HIV-1 Env of pseudovirus PV0 (HIV-1); remark: listed apart in the source
[28] = biological target: HIV-1 Env of pseudovirus SF162 (HIV-1) (UniProt P19550); remark: listed apart in the source

Substance | IC50, neutralization of pCNE8 PsV [1] [µg/mL] | IC50, neutralization of BG505 PsV [2] [µg/mL] | IC50, neutralization of X1632 PsV [3] [µg/mL] | IC50, neutralization of ZM106 PsV [4] [µg/mL] | IC50, neutralization of 278 PsV [5] [µg/mL] | IC50, neutralization of Du422 PsV [6] [µg/mL] | IC50, neutralization of T257 PsV [7] [µg/mL] | IC50, neutralization of 3817 PsV [8] [µg/mL] | IC50, neutralization of X2088 PsV [9] [µg/mL] | IC50, neutralization of JRCSF PsV [10] [µg/mL] | IC50, neutralization of ZM197 PsV [11] [µg/mL] | IC50, neutralization of THRO PsV [12] [µg/mL] | IC50, neutralization of PV0 PsV [13] [µg/mL] | IC50, neutralization of pCNE8 PsV [14] | IC50, neutralization of BG505 PsV [15] [nM] | IC50, neutralization of SF162 PsV [16] [nM] | IC50, neutralization of X1632 PsV [17] [nM] | IC50, neutralization of ZM106 PsV [18] [nM] | IC50, neutralization of 278 PsV [19] [nM] | IC50, neutralization of Du422 PsV [20] [nM] | further results
10E8v4 IgG (antibody) | 0.96 | 1.4 | 2.02 | > 50 | 1.8 | 0.55 | 1.5 | 3.1 | > 50 | 1.8 | 0.19 | 0.37 | 6.3 | 6.4 nM | 9 | 20 | 13 | > 100 | 12 | 3.7 | IC50, neutralization of T257 PsV [21]: 9.8 nM; IC50, neutralization of 3817 PsV [22]: 21 nM; IC50, neutralization of X2088 PsV [23]: > 100 nM; IC50, neutralization of JRCSF PsV [24]: 12 nM; IC50, neutralization of ZM197 PsV [25]: 1.3 nM; IC50, neutralization of THRO PsV [26]: 2.5 nM; IC50, neutralization of PV0 PsV [27]: 42 nM
32-I multabody (PGDM1400 scFab-human apoferritin : scFc-N-Ferritin : iMab A12P scFab-C-Ferritin : 10E8v4 scFab-C-Ferritin, 4:2:1:1) | 0.0013 | 0.0026 | 0.008 | 0.0031 | 0.008 | 0.7 | 0.0015 | 1.8 | 3.1 | 0.004 | 0.0044 | 0.033 | 0.12 | 0.57 pM | 0.0011 | 1.1 | 0.0034 | 0.0014 | 0.0035 | 0.31 | IC50, neutralization of SF162 PsV [28]: 2.5 µg/mL; IC50, neutralization of T257 PsV [21]: 0.00068 nM; IC50, neutralization of 3817 PsV [22]: 0.79 nM; IC50, neutralization of X2088 PsV [23]: 1.3 nM; IC50, neutralization of JRCSF PsV [24]: 0.0017 nM; IC50, neutralization of ZM197 PsV [25]: 0.0019 nM; IC50, neutralization of THRO PsV [26]: 0.014 nM; IC50, neutralization of PV0 PsV [27]: 0.052 nM
32-N multabody (PGDM1400 scFab-human apoferritin : scFc-N-Ferritin : N49P7 scFab-C-Ferritin : 10E8v4 scFab-C-Ferritin, 4:2:1:1) | 0.0032 | 0.0045 | 0.0045 | 0.0089 | 0.009 | 2.5 | 0.0037 | 9.1 | 5.2 | 0.0054 | 0.0096 | 0.058 | 0.33 | 1.4 pM | 0.0019 | 0.58 | 0.002 | 0.0039 | 0.0039 | 1.08 | IC50, neutralization of SF162 PsV [28]: 1.3 µg/mL; IC50, neutralization of T257 PsV [21]: 0.0016 nM; IC50, neutralization of 3817 PsV [22]: 3.9 nM; IC50, neutralization of X2088 PsV [23]: 2.3 nM; IC50, neutralization of JRCSF PsV [24]: 0.0023 nM; IC50, neutralization of ZM197 PsV [25]: 0.0042 nM; IC50, neutralization of THRO PsV [26]: 0.025 nM; IC50, neutralization of PV0 PsV [27]: 0.15 nM
N6/PGDM1400x10E8v4 trispecific antibody | 0.024 | 0.059 | 0.03 | 0.017 | 1.2 | 0.19 | 0.028 | 1.2 | 0.56 | 0.026 | 0.073 | 0.31 | 1.3 | 0.14 nM | 0.34 | 1.9 | 0.17 | 0.1 | 7.1 | 1.1 | IC50, neutralization of SF162 PsV [28]: 0.33 µg/mL; IC50, neutralization of T257 PsV [21]: 0.16 nM; IC50, neutralization of 3817 PsV [22]: 6.7 nM; IC50, neutralization of X2088 PsV [23]: 3.2 nM; IC50, neutralization of JRCSF PsV [24]: 0.15 nM; IC50, neutralization of ZM197 PsV [25]: 0.42 nM; IC50, neutralization of THRO PsV [26]: 1.7 nM; IC50, neutralization of PV0 PsV [27]: 7.2 nM
N49P7 IgG (antibody) | 0.28 | 0.21 | > 50 | 0.18 | > 50 | 10 | 1.2 | 3.3 | 0.38 | 0.12 | 0.58 | 7.5 | 0.28 | 1.8 nM | 1.4 | 1 | > 100 | 1.2 | > 100 | 66 | IC50, neutralization of SF162 PsV [28]: 0.15 µg/mL; IC50, neutralization of T257 PsV [21]: 8.3 nM; IC50, neutralization of 3817 PsV [22]: 22 nM; IC50, neutralization of X2088 PsV [23]: 2.5 nM; IC50, neutralization of JRCSF PsV [24]: 0.85 nM; IC50, neutralization of ZM197 PsV [25]: 3.9 nM; IC50, neutralization of THRO PsV [26]: 50 nM; IC50, neutralization of PV0 PsV [27]: 1.9 nM
PGDM1400 IgG (antibody) | 0.0027 | 0.0032 | 0.018 | 0.013 | 0.16 | 6 | 0.012 | > 50 | > 50 | 0.0074 | 0.11 | 0.09 | 1.3 | 18 pM | 0.02 | > 100 | 0.12 | 0.084 | 1.1 | 40 | IC50, neutralization of SF162 PsV [28]: > 50 µg/mL; IC50, neutralization of T257 PsV [21]: 0.08 nM; IC50, neutralization of 3817 PsV [22]: > 100 nM; IC50, neutralization of X2088 PsV [23]: > 100 nM; IC50, neutralization of JRCSF PsV [24]: 0.049 nM; IC50, neutralization of ZM197 PsV [25]: 0.68 nM; IC50, neutralization of THRO PsV [26]: 0.61 nM; IC50, neutralization of PV0 PsV [27]: 8.4 nM
